These results are taken from patent US7537764.

For assay [1], the target named is West Nile virus strain USA99b (strain 385-99), whole virus (West Nile virus strain 385-99 (USA99b)). As to the kind of experiment: ELISA on irradiated WNV; antibody diluted 1:125. (An ELISA detects its analyte on a solid surface through an enzyme-linked reagent.)
For assay [2] the target is unchanged. The assay can be described thus: ELISA on irradiated WNV; antibody diluted 1:5.
For assay [3] the target is unchanged. The assay can be described thus: SPR (BIAcore3000), WNV captured via immobilized CR4283, IgG injected, bivalent analyte model, average of duplicates.
The target in assay [4] is WNV-like particles with E protein mutation A365V (West Nile virus strain 382-99) (UniProt Q9Q6P4).
Assay [5] concerns the target West Nile virus strain USA99b (strain 385-99), whole virus (West Nile virus strain 385-99 (USA99b)). The assay can be described thus: ELISA on irradiated WNV; antibody diluted 1:25.
Assay [6] shares this target. As to the kind of experiment: ELISA on irradiated WNV; antibody at 20.000 µg/ml.

Take “WNV-E protein specific murine antibody 7H2”: the OD 492 nm in assay [1] was 2.13 OD; in assay [2], 2.09 OD; in assay [5] it was 2.12 OD. In assay [3], this substance came in with a Kd of 0.32 nM. The same substance gave a fold binding against wild-type VLP in assay [4] of 2 fold.

For “anti-rabies virus antibody (negative control)”, the OD 492 nm in assay [1] was found to be 0.046 OD; in assay [2] it was 0.062 OD; in assay [5] it was 0.056 OD; in assay [6], 0.051 OD.
